Data on two molecules can be found in patent publication CN112111006A.

Assay [1] has as its target 牛结节性皮肤病病毒(LSDV) P32蛋白,原核表达,去掉C端跨膜区 (Lumpy skin disease virus (LSDV)).
The target is the same in assay [2]. The experiment in a line: ELISA of the ascites-purified monoclonal antibody on P32.

Substitutions are numbered along the chain they refer to.

B1: P32蛋白单克隆抗体,细胞株编号701 (antibody, V domains shown)
VH: QSAPGLVQASQCLSITCTVSGFSLTTYAVHWVRQPPGQGLEWQGVIWSGGRTDYNAAFMCRLSISKDNSNSQDFFKMNSLQADDTAIYYCARNYYGGSLDYWGQGTTLTVSS
VL: DIVLTQTPASLAVSLGQRATISSRASNSVSTSRYSYMHWNQQKPGQPPRLLIYLVSNLESGVPARFSGSGSGTDFTLNIHPVEEEDAATYYCQHIRELTFGGGTKLEIK
B1 came in with a 检测限 in assay [1] of 10 ng/mL. Further, the ELISA效价 (titer (1:dilution)) in assay [2] was greater than 128000.

B2: P32蛋白单克隆抗体,细胞株编号901 (antibody, V domains shown)
VH: QVQLNQSGPGLVQPSQSLSITCTLSGFSLTTYAVHWVRQSPGKGLEWLGVIWIGGRTDYNAAFISRLSISKDNSKSQVFFEMNSLQPNDTAIYYCARNYYGGSFDYWGQGTTLTVS
VL: B1 VL with T7S, S23Y, A25D, N27K, R33G
Turning to B2, the 检测限 in assay [1] turned out to be 10 ng/mL. For the same molecule, the ELISA效价 (titer (1:dilution)) in assay [2] is greater than 128000.
